Results on one variant are retold here after IntAct's records for PubMed 22153076.

B1: SH3 domain-binding protein 2 (Mus musculus), Q06649 (parent)
chain: MAAEEMQWPVPMKAIGAQNLLTMPGGVAKAGYLHKKGGTQLQLLKWPLRFVIIHKRCIYYFKSSTSASPQGAFSLSGYNRVMRAAEETTSNNVFPFKIIHISKKHRTWFFSASSEDERKSWMAFVRREIGHFHEKKELPLDTSDSSSDTDSFYGAVERPIDISLSSYPMDNEDYEHEDEDDSYLEPDSPGPMKLEDALTYPPAYPPPPVPVPRKPAFSDLPRAHSFTSKSPSPLLPPPPPKRGLPDTGSAPEDAKDALGLRRVEPGLRVPATPRRMSDPPMSNVPTVPNLRKHPCFRDSVNPGLEPWTPGHGTSSVSSSTTMAVATSRNCDKLKSFHLSSRGPPTSEPPPVPANKPKFLKIAEEPSPREAAKFAPVPPVAPRPPVQKMPMPEATVRPAVLPRPENTPLPHLQRSPPDGQSFRGFSFEKARQPSQADTGEEDSDEDYEKVPLPNSVFVNTTESCEVERLFKATDPRGEPQDGLYCIRNSSTKSGKVLVVWDESSNKVRNYRIFEKDSKFYLEGEVLFASVGSMVEHYHTHVLPSHQSLLLRHPYGYAGPR

The variants in the first assay derive from B1. To be noted: with rn146_human RNF146, Q9NTX7.
Sequence of rn146_human RNF146, Q9NTX7 (Q9NTX7 whole entry): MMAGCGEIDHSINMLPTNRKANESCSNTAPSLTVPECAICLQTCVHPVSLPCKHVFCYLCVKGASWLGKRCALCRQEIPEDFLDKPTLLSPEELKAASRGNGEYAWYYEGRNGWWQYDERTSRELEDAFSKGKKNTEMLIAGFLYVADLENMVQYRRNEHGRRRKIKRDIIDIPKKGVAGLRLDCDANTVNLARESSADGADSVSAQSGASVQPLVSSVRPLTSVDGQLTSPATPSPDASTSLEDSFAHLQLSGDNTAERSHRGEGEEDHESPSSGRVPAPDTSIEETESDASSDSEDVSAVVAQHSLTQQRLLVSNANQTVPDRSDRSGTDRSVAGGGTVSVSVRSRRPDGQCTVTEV
In the case of MAAEEMQWPVPMKAIGAQNLLTMPGGVAKAGYLHKKGGTQLQLLKWPLRFVIIHKRCIYYFKSSTSASPQGAFSLSGYNRVMRAAEETTSNNVFPFKIIHISKKHRTWFFSASSEDERKSWMAFVRREIGHFHEKKELPLDTSDSSSDTDSFYGAVERPIDISLSSYPMDNEDYEHEDEDDSYLEPDSPGPMKLEDALTYPPAYPPPPVPVPRKPAFSDLPRAHSFTSKSPSPLLPPPPPKRGLPDTGSAPEDAKDALGLRRVEPGLRVPATPRRMSDPPMSNVPTVPNLRKHPCFRDSVNPGLEPWTPGHGTSSVSSSTTMAVATSRNCDKLKSFHLSSRGPPTSEPPPVPANKPKFLKIAEEPSPREAAKFAPVPPVAPRPPVQKMPMPEATVRPAVLPRPENTPLPHLQQSPPDGQSFRGFSFEKARQPSQADTGEEDSDEDYEKVPLPNSVFVNTTESCEVERLFKATDPRGEPQDGLYCIRNSSTKSGKVLVVWDESSNKVRNYRIFEKDSKFYLEGEVLFASVGSMVEHYHTHVLPSHQSLLLRHPYGYAGPR [R413Q], the “effect of a mutation on the interaction” value is “decreasing interaction”.

The variants in the next assay derive from B1. The note with it: with tnks1_human TNKS.
With MAAEEMQWPVPMKAIGAQNLLTMPGGVAKAGYLHKKGGTQLQLLKWPLRFVIIHKRCIYYFKSSTSASPQGAFSLSGYNRVMRAAEETTSNNVFPFKIIHISKKHRTWFFSASSEDERKSWMAFVRREIGHFHEKKELPLDTSDSSSDTDSFYGAVERPIDISLSSYPMDNEDYEHEDEDDSYLEPDSPGPMKLEDALTYPPAYPPPPVPVPRKPAFSDLPRAHSFTSKSPSPLLPPPPPKRGLPDTGSAPEDAKDALGLRRVEPGLRVPATPRRMSDPPMSNVPTVPNLRKHPCFRDSVNPGLEPWTPGHGTSSVSSSTTMAVATSRNCDKLKSFHLSSRGPPTSEPPPVPANKPKFLKIAEEPSPREAAKFAPVPPVAPRPPVQKMPMPEATVRPAVLPRPENTPLPHLQQSPPDGQSFRGFSFEKARQPSQADTGEEDSDEDYEKVPLPNSVFVNTTESCEVERLFKATDPRGEPQDGLYCIRNSSTKSGKVLVVWDESSNKVRNYRIFEKDSKFYLEGEVLFASVGSMVEHYHTHVLPSHQSLLLRHPYGYAGPR [R413Q], the “effect of a mutation on the interaction” value was “disrupting interaction”.
